As usually defined, the stoichiometry N is the number of molecules, sites or subunits per partner or assembly.

Our source for the stoichiometry N values is PMC6888645.

Experiment [1] addresses DD-N-CAP1, human CAP1 helical folded domain with the coiled coil (a.a. 1-29) replaced by the dimerization domain 2L4HC2_23 (human). Description: native MS; 100-300 pmole protein (as monomer), online buffer exchange to 200 mM ammonium acetate pH 6.8, Orbitrap EMR, deconvolution with UniDec.
Experiment [2] has the same target. Description: AUC; sedimentation velocity (SV-AUC), 50 µM protein, 20 °C, 50,000 rpm, absorbance at 280 nm, 20 mM Tris-HCl pH 8.0, SEDFIT c(S) model; buffer (Tris-HCl vs PBS) and salt did not affect the oligomerization state.
Experiment [3] concerns the target DD-N-CAP2, human CAP2 helical folded domain with the coiled coil (a.a. 1-29) replaced by the dimerization domain 2L4HC2_23 (human). Description: native MS; 100-300 pmole protein (as monomer), online buffer exchange to 200 mM ammonium acetate pH 6.8, Orbitrap EMR, deconvolution with UniDec.
Experiment [4] has the same target. Description: AUC; sedimentation velocity (SV-AUC), 50 µM protein, 20 °C, 50,000 rpm, absorbance at 280 nm, 20 mM Tris-HCl pH 8.0, SEDFIT c(S) model; buffer (Tris-HCl vs PBS) and salt did not affect the oligomerization state.
Experiment [5] addresses TD-N-CAP1, human CAP1 helical folded domain with the coiled coil (a.a. 1-29) replaced by the trimerization domain 2L6HC3_6 (human). Description: native MS; 100-300 pmole protein (as monomer), online buffer exchange to 200 mM ammonium acetate pH 6.8, Orbitrap EMR, deconvolution with UniDec.
Experiment [6] has the same target. Nature of the experiment: AUC; sedimentation velocity (SV-AUC), 50 µM protein, 20 °C, 50,000 rpm, absorbance at 280 nm, 20 mM Tris-HCl pH 8.0, SEDFIT c(S) model; buffer (Tris-HCl vs PBS) and salt did not affect the oligomerization state.
The target of experiment [7] is TD-N-CAP2, human CAP2 helical folded domain with the coiled coil (a.a. 1-29) replaced by the trimerization domain 2L6HC3_6 (human). Description: native MS; 100-300 pmole protein (as monomer), online buffer exchange to 200 mM ammonium acetate pH 6.8, Orbitrap EMR, deconvolution with UniDec.
Experiment [8] shares this target. Nature of the experiment: AUC; sedimentation velocity (SV-AUC), 50 µM protein, 20 °C, 50,000 rpm, absorbance at 280 nm, 20 mM Tris-HCl pH 8.0, SEDFIT c(S) model; buffer (Tris-HCl vs PBS) and salt did not affect the oligomerization state.

As to “DD-N-CAP1, human CAP1 helical folded domain with the coiled coil (a.a. 1-29) replaced by the dimerization domain 2L4HC2_23”, the stoichiometry N in experiment [1] and in experiment [2] was 2 each time.
For “DD-N-CAP2, human CAP2 helical folded domain with the coiled coil (a.a. 1-29) replaced by the dimerization domain 2L4HC2_23”, the stoichiometry N in experiment [3] and in experiment [4] was 2 in each case.
As to “TD-N-CAP1, human CAP1 helical folded domain with the coiled coil (a.a. 1-29) replaced by the trimerization domain 2L6HC3_6”, the stoichiometry N in experiment [5] and in experiment [6] was 3 each time.
With “TD-N-CAP2, human CAP2 helical folded domain with the coiled coil (a.a. 1-29) replaced by the trimerization domain 2L6HC3_6”, the stoichiometry N in experiment [7] and in experiment [8] was 3 each time.
